Assay results published in US20060270832A1.

B1: SEQ ID NO. 85 (peptide)
peptide: WKDLCCGYKLCHPC
modifications: not checked
B2: SEQ ID NO. 99 (peptide)
peptide: GYKLGCCGYKLCC
modifications: not checked

Molecular target: human noradrenaline transporter (hNET) (human), P23975
Experiment: cell-based or functional assay

Sequence of human noradrenaline transporter (hNET) (human), P23975 (P23975 whole entry): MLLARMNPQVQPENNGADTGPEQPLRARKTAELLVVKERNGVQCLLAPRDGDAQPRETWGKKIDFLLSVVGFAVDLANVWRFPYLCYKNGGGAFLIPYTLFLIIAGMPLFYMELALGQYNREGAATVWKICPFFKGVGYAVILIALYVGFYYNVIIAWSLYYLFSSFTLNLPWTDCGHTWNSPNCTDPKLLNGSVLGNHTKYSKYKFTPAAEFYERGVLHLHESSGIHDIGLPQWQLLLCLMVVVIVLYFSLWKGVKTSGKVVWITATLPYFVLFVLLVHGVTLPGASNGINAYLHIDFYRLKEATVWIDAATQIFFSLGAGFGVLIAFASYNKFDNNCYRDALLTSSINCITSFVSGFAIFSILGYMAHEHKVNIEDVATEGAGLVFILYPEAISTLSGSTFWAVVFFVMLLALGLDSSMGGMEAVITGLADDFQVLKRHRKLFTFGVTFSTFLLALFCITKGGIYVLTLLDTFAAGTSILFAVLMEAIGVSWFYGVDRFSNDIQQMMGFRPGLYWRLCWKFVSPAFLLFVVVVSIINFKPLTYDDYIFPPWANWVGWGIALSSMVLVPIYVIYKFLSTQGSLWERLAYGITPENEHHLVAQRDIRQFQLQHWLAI

Row | Binder | Av IC50, inhibition of NA uptake via hNET (log M (unit not given))
1 | B1 | -7.05
2 | B2 | -6.99
